Among the data in CN110903395A (SICHUAN KELUN BOTAI BIOMEDICAL CO LTD, dated 2020) are EC50 values, retold here.

Usually EC50 stands for the concentration that produces a half-maximal response.

The experiment addresses T1, Trop-2-mFc (human, UniProt P09758 27-274).
T1 construct: Made in-house by 四川科伦博泰; Coated at 1 μg/ml on the ELISA plate; also called 配体Trop-2-mFc
T1 sequence (looked up): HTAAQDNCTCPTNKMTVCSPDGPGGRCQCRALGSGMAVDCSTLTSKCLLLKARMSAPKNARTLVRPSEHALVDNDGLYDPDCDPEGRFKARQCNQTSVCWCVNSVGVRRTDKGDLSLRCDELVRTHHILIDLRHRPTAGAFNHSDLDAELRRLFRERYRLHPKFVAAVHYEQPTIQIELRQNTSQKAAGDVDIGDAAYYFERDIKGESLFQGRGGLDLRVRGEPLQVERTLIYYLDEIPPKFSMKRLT
Briefly: ELISA, Trop-2-mFc coated at 1 μg/ml, detection with HRP-anti human IgG(H+L). (In general: In an ELISA, binding on a coated surface is turned into a signal by an enzyme label.)

Where a chain is given by its changes, count along the chain named.

B1: 疏水性改造TROP-2抗体M1 (antibody, human IgG1, kappa, V domains shown)
VH: QVQLQQSGSELKKPGASVKVSCKASGYTFTNYGMNWVKQAPGQGLKWMGWINTDSGEPTYTDDFKGRFAFSLDTSVSTAYLQISSLKADDTAVYFCARGGFGSSYWYFDVWGQGSLVTVSS
VL: DIQLTQSPSSLSASVGDRVSITCKASQDVSSAVAWYQQKPGKAPKLLIYSASYRYTGVPDRFSGSGSGTDFTLTISSLQPEDFAVYYCQQHYSTPLTFGAGTKVEIKR
notes: Humanized anti-Trop-2 antibody derived from Sacituzumab by hydrophilic CDR mutations; expressed in CHO-S cells, purified on protein A
With B1, the EC50 came out at 9.91 nM.

B2: Sacituzumab抗体 (antibody, V domains shown)
VH: B1 VH with D54Y, S55T
VL: B1 VL with S31I, S93I
B2 registered an EC50 of 13.1 nM.

B3: 疏水性改造TROP-2抗体M2 (antibody, human IgG1, kappa, V domains shown)
VH: B1 VH
VL: B1 VL with S93I
notes: as for B1
For B3, the EC50 came out at 13.9 nM.

B4: 疏水性改造TROP-2抗体M3 (antibody, human IgG1, kappa, V domains shown)
VH: B1 VH
VL: B1 VL with S31I
notes: as for B1
For the molecule B4, the EC50 was determined as 10.8 nM.
